Experimental data taken from publication PMC4835091.

B1: FtsZ (purified, WT) [E. coli] / itself (parent)
chain: MFEPMELTNDAVIKVIGVGGGGGNAVEHMVRERIEGVEFFAVNTDAQALRKTAVGQTIQIGSGITKGLGAGANPEVGRNAADEDRDALRAALEGADMVFIAAGMGGGTGTGAAPVVAEVAKDLGILTVAVVTKPFNFEGKKRMAFAEQGITELSKHVDSLITIPNDKLLKVLGRGISLLDAFGAANDVLKGAVQGIAELITRPGLMNVDFADVRTVMSEMGYAMMGSGVASGEDRAEEAAEMAISSPLLEDIDLSGARGVLVNITAGFDLRLDEFETVGNTIRAFASDNATVVIGTSLDPDMNDELRVTVVATGIGMDKRPEITLVTNKQVQQPVMDRYQQHGMAPLTQEQKPVAKVVNDNAPQTAKEPDYLDIPAFLRKQAD
B2: FtsZ (purified, WT) [E. coli] / ZapD (purified) [E. coli] (parent)
chain 1: MQTQVLFEHPLNEKMRTWLRIEFLIQQLTVNLPIVDHAGALHFFRNVSELLDVFERGEVRTELLKELDRQQRKLQTWIGVPGVDQSRIEALIQQLKAAGSVLISAPRIGQFLREDRLIALVRQRLSIPGGCCSFDLPTLHIWLHLPQAQRDSQVETWIASLNPLTQALTMVLDLIRQSAPFRKQTSLNGFYQDNGGDADLLRLNLSLDSQLYPQISGHKSRFAIRFMPLDTENGQVPERLDFELACC
chain 2: B1 chain

Legend:
[1] = variants of: B1; assay: sedimentation (co-pelleting) assay, SDS-PAGE quantification; conditions: with itself, 50 mM K-MOPS pH 6.5, 50 mM KCl, 2.5 mM MgCl2, 1 mM GTP, 3 µM BSA, read off a plot
[2] = variants of: B2; assay: co-sedimentation assay, SDS-PAGE quantification; conditions: with ZapD (purified) [E. coli], 50 mM K-MOPS pH 6.5, 50 mM KCl, 2.5 mM MgCl2, 1 mM GTP, 3 µM BSA, read off a plot

Row | Variant | response (% FtsZ in pellet) ([1]; 5 µM FtsZ with ZapD at 1:0.2) | response (% FtsZ in pellet) ([1]; 5 µM FtsZ with ZapD at 1:1) | response (% FtsZ in pellet) ([1]; 5 µM FtsZ, no ZapD) | response (% ZapD in pellet) ([2]; 5 µM FtsZ with ZapD at 1:1) | response (% ZapD in pellet) ([2]; 5 µM FtsZ with ZapD at 1:0.2)
1 | chain 1 K380Q A382Q D383Q | 43 | 69 | 24 | – | –
2 | chain 1 K380R D383R | 39 | 50 | 23 | – | –
3 | chain 1 K380D D383K | 43 | 64 | 23 | – | –
4 | chain 1 D383K | 45 | 66 | 27 | – | –
5 | chain 1 K380D | 29 | 41 | 27 | – | –
6 | chain 2 K380D D383K | – | – | – | 49 | –
7 | chain 2 K380R D383R | – | – | – | 35 | 16
8 | chain 2 D383K | – | – | – | 60 | 71
9 | chain 2 K380Q A382Q D383Q | – | – | – | 42 | 42
10 | chain 2 K380D | – | – | – | 10 | 14
